According to article PMC6987189, “Native aggregation is a common feature among triosephosphate isomerases of different species” (Scientific Reports, 2020):

Tested on: O=C[C@H](O)COP(=O)(O)O
Assay: purified protein
Assay type: biochemical, Giardia duodenalis
Settings: GAP to DHAP direction, 25 °C, 100 mM TEA, 10 mM EDTA, 0.2 mM NADH, GAP 0.3 to 3 mM

GlTIM (Giardia duodenalis; C202A)
Km: 100 ± 10 µM | kcat: 3280 ± 103 s⁻¹ | kcat/Km: 2.9e+07 M⁻¹ s⁻¹
